From patent publication US8734776B2 (ZymoGenetics, Inc., priority 2003, dated 2014)

B1: zcyto25: mouse IL-28, SEQ ID NO:10 (protein, listed as Mus musculus)
chain: MKPETAGGHMLLLLLPLLLAAVLTRTQADPVPRATRLPVEAKDCHIAQFKSLSPKELQAFKKAKGAIEKRLLEKDMRCSSHLISRAWDLKQLQVQERPKALQAEVALTLKVWENINDSALTTILGQPLHTLSHIHSQLQTCTQLQATAEPKPPSRRLSRWLHRLQEAQSKETPGCLEDSVTSNLFQLLLRDLKCVASGDQCV
modifications: SIGNAL (1)...(28)
B2: IL-28B: human IL-28B, previously designated zcyto22, SEQ ID NO:6 (protein, listed as Homo sapiens)
chain: MKLDMTGDCMPVLVLMAAVLTVTGAVPVARLRGALPDARGCHIAQFKSLSPQELQAFKRAKDALEESLLLKDCKCRSRLFPRTWDLRQLQVRERPVALEAELALTLKVLEATADTDPALGDVLDQPLHTLHHILSQLRACIQPQPTAGPRTRGRLHHWLHRLQEAPKKESPGCLEASVTFNLFRLLTRDLNCVASGDLCV
modifications: SIGNAL (1)...(25)
B3: Muzcytor19-Ig: murine zcytor19-Ig homodimer soluble receptor (protein)
chain: RPRLAPPRNVTLFSQNFTVYLTWLPGLGSPPNVTYFVTYQSYIKTGWRPVEHCAGIKALVCPLMCLKKLNLYSKFKGRVQAASAHGRSPRVESRYLEYLFDVELAPPTLVLTQMEKILRVNATYQLPPCMPSLELKYQVEFWKEGLGSKTLFPDTPYGQPVQIPLQQGASRRHCLSARTVYTLIDIKYSQFSEPSCIFLEAPGDKRA
modifications: left off: a dimerising Fc or GST
notes: murine zcytor19-Ig homodimer soluble receptor
B4: Huzcytor19-Fc: human zcytor19-Fc homodimer soluble receptor (protein)
chain: RPRLAPPQNVTLLSQNFSVYLTWLPGLGNPQDVTYFVAYQSSPTRRRWREVEECAGTKELLCSMMCLKKQDLYNKFKGRVRTVSPSSKSPWVESEYLDYLFEVEPAPPVLVLTQTEEILSANATYQLPPCMPPLDLKYEVAFWKEGAGNKTLFPVTPHGQPVQITLQPAASEHHCLSARTIYTFSVPKYSKFSKPTCFLLEVPEANWA
modifications: left off: a dimerising Fc or GST
notes: human zcytor19-Fc homodimer soluble receptor

How the values were obtained:
zcyto24 = biological target: T1, zcyto24 (Mus musculus, UniProt Q4VK74); assay: Inhibition of ligand-induced ISRE signaling by soluble receptors, zcyto24; format: cell-based; details: ligand Zcyto24 10 ng/ml; soluble receptor 10 micrograms/ml
T1 sequence (Q4VK74 20-193): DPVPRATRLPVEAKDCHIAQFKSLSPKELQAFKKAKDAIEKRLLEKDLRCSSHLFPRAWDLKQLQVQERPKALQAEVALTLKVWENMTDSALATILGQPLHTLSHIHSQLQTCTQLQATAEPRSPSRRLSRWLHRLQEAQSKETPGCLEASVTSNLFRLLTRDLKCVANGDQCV
Excerpt: (§1) A signal transduction reporter assay can be used to show the inhibitor properties of zcytor19-Fc4 homodimeric and zcytor19-Fc/CRF2-4-Fc heterodimeric soluble receptors on zcyto20, zcyto21 and zcyto24 signaling Human embryonal kidney (HEK) cells overexpressing the zcytor19 receptor are transfected with a reporter plasmid containing an interferon-stimulated response element (ISRE) driving transcription of a luciferase reporter gene. Luciferase activity following stimulation of transfected cells with ligands (including zcyto20 (SEQ ID NO:2), zcyto21 (SEQ ID NO:4), zcyto24 (SEQ ID NO: 8)) reflects the interaction of the ligand with soluble receptor.
(§2) 293 HEK cells overexpressing zcytor19 were transfected as follows: 700,000 293 cells/well (6 well plates) were plated approximately 18 h prior to transfection in 2 milliliters DMEM+10% fetal bovine serum. Per well, 1 microgram pISRE-Luciferase DNA (Stratagene) and 1 microgram pIRES2-EGFP DNA (Clontech,) were added to 6 microliters Fugene 6 reagent (Roche Biochemicals) in a total of 100 microliters DMEM. This transfection mix was added 30 minutes later to the pre-plated 293 cells. Twenty-four hours later the transfected cells were removed from the plate using trypsin-EDTA and replated at approximately 25,000 cells/well in 96 well microliter plates. Approximately 18 h prior to ligand stimulation, media was changed to DMEM+0.5% FBS.
(§3) The signal transduction reporter assays were done as follows: Following an 18 h incubation at 37° C. in DMEM+0.5% FBS, transfected cells were stimulated with 10 ng/ml zcyto20, zcyto21 or zcyto24 and 10 micrograms/ml of the following soluble receptors; human zcytor19-Fc homodimer, human zcytor19-Fc/human CRF2-4-Fc heterodimer, human CRF2-4-Fc homodimer, murine zcytor19-Ig homodimer. Following a 4-hour incubation at 37° C., the cells were lysed, and the relative light units (RLU) were measured on a luminometer after addition of a luciferase substrate. The results obtained are shown as the percent inhibition of ligand-induced signaling in the presence of soluble receptor relative to the signaling in the presence of PBS alone.

zcyto20 = biological target: T2, zcyto20 (Homo sapiens, UniProt Q8IZJ0); assay: Inhibition of ligand-induced ISRE signaling by soluble receptors, zcyto20; format: cell-based; details: soluble receptor 10 micrograms/ml; for Percent Inhibition of Ligand-induced ISRE Signaling by Soluble Receptors: ligand Zcyto20 10 ng/ml; for effect on ligand-induced signaling: zcyto20, zcyto21 or zcyto24 10 ng/ml
T2 sequence (Q8IZJ0 26-200): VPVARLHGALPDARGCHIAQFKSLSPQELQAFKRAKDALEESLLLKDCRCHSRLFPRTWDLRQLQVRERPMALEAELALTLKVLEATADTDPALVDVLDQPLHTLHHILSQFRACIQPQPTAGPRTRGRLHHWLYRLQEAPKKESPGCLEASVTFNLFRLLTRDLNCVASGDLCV
Excerpt: as §1, §2, §3

zcyto21 = zcyto21 (Homo sapiens, UniProt Q8IU54); assay: Inhibition of ligand-induced ISRE signaling by soluble receptors, zcyto21; format: cell-based; details: ligand Zcyto21 10 ng/ml; soluble receptor 10 micrograms/ml
Excerpt: as §1, §2, §3

[1] = tested on: encephelomyocarditis virus; assay: Antiviral assay: cytopathic effect in HeLa cells; format: cell-based, human
[2] = tested on: encephelomyocarditis virus; assay: Antiviral assay: cytopathic effect in L929 cells; format: cell-based, mouse
[3] = relative CM concentration .008X
[4] = relative CM concentration .0156X
[5] = relative CM concentration .0325X
[6] = relative CM concentration .0625X
[7] = relative CM concentration .125X

zcyto21, sequence (Q8IU54 20-200): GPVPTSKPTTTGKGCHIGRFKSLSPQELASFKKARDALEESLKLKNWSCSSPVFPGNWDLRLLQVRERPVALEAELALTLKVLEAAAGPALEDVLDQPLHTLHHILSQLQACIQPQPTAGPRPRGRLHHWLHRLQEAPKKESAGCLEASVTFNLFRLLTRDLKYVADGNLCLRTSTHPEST

Molecule | Percent Inhibition of Ligand-induced ISRE Signaling by Soluble Receptors (zcyto24) | Percent Inhibition of Ligand-induced ISRE Signaling by Soluble Receptors (zcyto20) | effect on ligand-induced signaling (zcyto20) | Percent Inhibition of Ligand-induced ISRE Signaling by Soluble Receptors (zcyto21) | Percentage Cytopathic Effect [1, 3] | Percentage Cytopathic Effect [1, 4] | Percentage Cytopathic Effect [1, 5] | Percentage Cytopathic Effect [1, 6] | Percentage Cytopathic Effect [1, 7] | Percentage Cytopathic Effect ([1]; relative CM concentration .25X) | Percentage Cytopathic Effect ([1]; relative CM concentration .5X) | Percentage Cytopathic Effect ([2]; relative CM conc. .008X) | Percentage Cytopathic Effect ([2]; relative CM conc. .0156X) | Percentage Cytopathic Effect ([2]; relative CM conc. .0325X) | Percentage Cytopathic Effect ([2]; relative CM conc. .0625X) | Percentage Cytopathic Effect ([2]; relative CM conc. .125X) | Percentage Cytopathic Effect ([2]; relative CM conc. .25X) | Percentage Cytopathic Effect ([2]; relative CM conc. .5X)
HuCRF2-4-Fc: human CRF2-4-Fc homodimer soluble receptor | 82% | 80% | No significant effects | 79% |  |  |  |  |  |  |  |  |  |  |  |  |  | 
Huzcytor19-Fc/huCRF2-4-Fc: human zcytor19-Fc/human CRF2-4-Fc heterodimer soluble receptor | 47% | 16% |  | 16% |  |  |  |  |  |  |  |  |  |  |  |  |  | 
B1 |  |  |  |  | 10% | 5% | 5% | 0% | 0% | 0% | 0% | 87% | 87% | 87% | 87% | 87% | 87% | 87%
B2 |  |  |  |  | 0% | 0% | 0% | 0% | 0% | 0% | 0% | 87% | 87% | 87% | 87% | 87% | 87% | 87%
B3 | 89% | 91% | No significant effects | 103% |  |  |  |  |  |  |  |  |  |  |  |  |  | 
B4 | 90% | 92% |  | 45% |  |  |  |  |  |  |  |  |  |  |  |  |  | 
